In PMC10574006, “Two Different Isocitrate Dehydrogenases from Pseudomonas aeruginosa: Enzymology and Coenzyme-Evolutionary Implications” (International Journal of Molecular Sciences, 2023):

T1: PaIDH2 (Pseudomonas aeruginosa, UniProt Q9I0L4)
T1 construct: gene idh; full length, 741 aa, 6xHis-tag, pET-28b(+) NdeI/XhoI, E. coli Rosetta (DE3), 81 kDa subunit, oligomer depends on salt (176-320 kDa)
T1 sequence (Q9I0L4 1-741): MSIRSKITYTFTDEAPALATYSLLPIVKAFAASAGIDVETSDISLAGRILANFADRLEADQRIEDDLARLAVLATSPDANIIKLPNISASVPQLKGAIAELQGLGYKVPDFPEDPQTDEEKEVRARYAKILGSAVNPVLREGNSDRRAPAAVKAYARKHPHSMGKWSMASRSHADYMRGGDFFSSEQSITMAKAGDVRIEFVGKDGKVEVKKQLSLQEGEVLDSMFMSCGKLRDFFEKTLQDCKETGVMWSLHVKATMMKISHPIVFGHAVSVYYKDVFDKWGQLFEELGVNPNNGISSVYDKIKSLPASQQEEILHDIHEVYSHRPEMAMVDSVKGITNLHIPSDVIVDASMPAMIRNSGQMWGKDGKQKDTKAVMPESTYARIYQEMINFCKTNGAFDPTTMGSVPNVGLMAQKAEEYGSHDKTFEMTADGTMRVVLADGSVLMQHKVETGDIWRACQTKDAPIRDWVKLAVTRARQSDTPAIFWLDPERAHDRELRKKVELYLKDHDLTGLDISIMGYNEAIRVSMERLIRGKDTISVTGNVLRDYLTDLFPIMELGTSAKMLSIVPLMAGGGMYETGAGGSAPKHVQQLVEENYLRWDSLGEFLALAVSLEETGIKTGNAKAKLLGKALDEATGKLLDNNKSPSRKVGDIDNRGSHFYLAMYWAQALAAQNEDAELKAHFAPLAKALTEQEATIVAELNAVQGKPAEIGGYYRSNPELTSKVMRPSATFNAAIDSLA

T2: PaIDH1 (Pseudomonas aeruginosa, UniProt Q9I0L5)
T2 construct: gene icd; full length, 418 aa, 6xHis-tag, pET-28b(+) NdeI/XhoI, E. coli Rosetta (DE3), 45 kDa subunit, homodimer
T2 sequence (Q9I0L5 1-418): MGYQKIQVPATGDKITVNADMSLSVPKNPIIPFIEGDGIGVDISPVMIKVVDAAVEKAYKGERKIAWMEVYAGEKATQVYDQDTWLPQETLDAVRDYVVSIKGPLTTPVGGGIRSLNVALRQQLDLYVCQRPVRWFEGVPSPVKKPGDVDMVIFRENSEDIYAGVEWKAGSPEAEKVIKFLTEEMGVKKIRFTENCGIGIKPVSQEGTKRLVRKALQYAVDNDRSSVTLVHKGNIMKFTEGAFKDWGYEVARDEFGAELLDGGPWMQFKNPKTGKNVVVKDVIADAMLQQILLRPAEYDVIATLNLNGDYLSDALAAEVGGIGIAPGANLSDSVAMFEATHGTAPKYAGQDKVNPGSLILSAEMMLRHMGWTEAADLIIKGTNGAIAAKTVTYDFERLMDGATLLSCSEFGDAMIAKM

B1: PaIDH1 (Pseudomonas aeruginosa PAO1) (protein)
chain: MGYQKIQVPATGDKITVNADMSLSVPKNPIIPFIEGDGIGVDISPVMIKVVDAAVEKAYKGERKIAWMEVYAGEKATQVYDQDTWLPQETLDAVRDYVVSIKGPLTTPVGGGIRSLNVALRQQLDLYVCQRPVRWFEGVPSPVKKPGDVDMVIFRENSEDIYAGVEWKAGSPEAEKVIKFLTEEMGVKKIRFTENCGIGIKPVSQEGTKRLVRKALQYAVDNDRSSVTLVHKGNIMKFTEGAFKDWGYEVARDEFGAELLDGGPWMQFKNPKTGKNVVVKDVIADAMLQQILLRPAEYDVIATLNLNGDYLSDALAAEVGGIGIAPGANLSDSVAMFEATHGTAPKYAGQDKVNPGSLILSAEMMLRHMGWTEAADLIIKGTNGAIAAKTVTYDFERLMDGATLLSCSEFGDAMIAKM
notes: full length, 418 aa, 6xHis-tag, pET-28b(+) NdeI/XhoI, E. coli Rosetta (DE3), 45 kDa subunit, homodimer
B2: PaIDH2 (Pseudomonas aeruginosa PAO1) (protein)
chain: MSIRSKITYTFTDEAPALATYSLLPIVKAFAASAGIDVETSDISLAGRILANFADRLEADQRIEDDLARLAVLATSPDANIIKLPNISASVPQLKGAIAELQGLGYKVPDFPEDPQTDEEKEVRARYAKILGSAVNPVLREGNSDRRAPAAVKAYARKHPHSMGKWSMASRSHADYMRGGDFFSSEQSITMAKAGDVRIEFVGKDGKVEVKKQLSLQEGEVLDSMFMSCGKLRDFFEKTLQDCKETGVMWSLHVKATMMKISHPIVFGHAVSVYYKDVFDKWGQLFEELGVNPNNGISSVYDKIKSLPASQQEEILHDIHEVYSHRPEMAMVDSVKGITNLHIPSDVIVDASMPAMIRNSGQMWGKDGKQKDTKAVMPESTYARIYQEMINFCKTNGAFDPTTMGSVPNVGLMAQKAEEYGSHDKTFEMTADGTMRVVLADGSVLMQHKVETGDIWRACQTKDAPIRDWVKLAVTRARQSDTPAIFWLDPERAHDRELRKKVELYLKDHDLTGLDISIMGYNEAIRVSMERLIRGKDTISVTGNVLRDYLTDLFPIMELGTSAKMLSIVPLMAGGGMYETGAGGSAPKHVQQLVEENYLRWDSLGEFLALAVSLEETGIKTGNAKAKLLGKALDEATGKLLDNNKSPSRKVGDIDNRGSHFYLAMYWAQALAAQNEDAELKAHFAPLAKALTEQEATIVAELNAVQGKPAEIGGYYRSNPELTSKVMRPSATFNAAIDSLA
notes: full length, 741 aa, 6xHis-tag, pET-28b(+) NdeI/XhoI, E. coli Rosetta (DE3), 81 kDa subunit, oligomer depends on salt (176-320 kDa)

Assays:
PaIDH2 = biological target: T1, PaIDH2; assay: effect on IDH activity, product formation; format: biochemical; conditions: read-out: Relative Activity (%) / PaIDH2
From the text: effect on IDH activity, product formation on PaIDH2

PaIDH1 = biological target: T2, PaIDH1; assay: effect on IDH activity, product formation; format: biochemical; conditions: read-out: Relative Activity (%) / PaIDH1
From the text: effect on IDH activity, product formation on PaIDH1

purified protein [1] = substrate: NC(=O)c1ccc[n+]([C@@H]2O[C@H](COP(=O)(O)OP(=O)(O)OC[C@H]3O[C@@H](n4cnc5c(N)ncnc54)[C@H](OP(=O)(O)O)[C@@H]3O)[C@@H](O)[C@H]2O)c1; assay: purified protein; format: biochemical, Pseudomonas aeruginosa; conditions: 1 mM DL-isocitrate, 2 mM MnCl2, 50 mM Tris-HCl pH 7.5, 25 °C, varied: cofactor
purified protein [2] = substrate: O=C(O)CC(C(=O)O)C(O)C(=O)O; assay: purified protein; format: biochemical, Pseudomonas aeruginosa; conditions: 500 μM NADP+, 2 mM MnCl2, 50 mM Tris-HCl pH 7.5, 25 °C

Molecule | activity at 2000 µM (PaIDH2) | activity at 2000 µM (PaIDH1) | Km (purified protein [1]) | kcat (purified protein [1]) | kcat/Km (purified protein [1]) | Km (purified protein [2]) | kcat (purified protein [2]) | kcat/Km (purified protein [2])
Nc1ncnc2c1ncn2[C@@H]1O[C@H](COP(=O)(O)OP(=O)(O)OP(=O)(O)O)[C@@H](O)[C@H]1O [ATP] | 75.9 ± 5.92% |  |  |  |  |  |  | 
Nc1ncnc2c1ncn2[C@@H]1O[C@H](COP(=O)(O)OP(=O)(O)O)[C@@H](O)[C@H]1O [ADP] | 82.7 ± 3.37% | 81.8 ± 3.55% |  |  |  |  |  | 
O=C(O)CCC(=O)C(=O)O [α-KG] | 82.8 ± 5.65% | 79.5 ± 4.64% |  |  |  |  |  | 
O=C(O)CC(=O)C(=O)O [OAA] |  | 77.5 ± 4.56% |  |  |  |  |  | 
B1 |  |  | 20.00 ± 6.29 µM | 105 ± 19.9 s⁻¹ | 5.42e+06 ± 970000 M⁻¹ s⁻¹ | 14.41 ± 1.82 µM | 29.3 ± 10.9 s⁻¹ | 2.1e+06 ± 930000 M⁻¹ s⁻¹
B2 |  |  | 30.68 ± 2.73 µM | 134 ± 17 s⁻¹ | 4.42e+06 ± 1.13e+06 M⁻¹ s⁻¹ | 23.61 ± 1.21 µM | 171 ± 6.77 s⁻¹ | 7.26e+06 ± 130000 M⁻¹ s⁻¹
